Source: patent publication US20200270588A1, “GLUCOSYL TRANSFERASE POLYPEPTIDES AND METHODS OF USE” (Syngenta Participations AG, priority 2017, published 2020)
Numbering of substitutions follows the chain as printed. Names and notes keep the numbering of the source.

Experiment: LC/MS plate assay of crude E. coli extracts, Zea mays bx8 derivatives, herbicide V
Format: biochemical
Details: for activity with herbicide V: LC/MS; for activity relative to like-expressed Zea mays bx9 w/t extract: herbicide V, LC/MS peaks, estimate
Procedure: In an alternative method for assaying the various enzymes, the test glucosyl transferase enzyme is reacted with substrates exactly as above except that the assay is stopped by adding an equal volume of acetonitrile. Alternatively 50 or 100 μl samples from assay reactions are added to 500 μl ethyl acetate to stop the reaction. In this case samples are then vortexed and 400 μl of the ethyl acetate partition removed, dried down, and resuspended in 100 μl 80:20 acetonitrile/water. The formation of product gluco side and/or disappearance of substrate test herbicide is then monitored directly by LC/MS. Samples are analyzed by LC-MS using an Agilent 1290 liquid chromatography system and Thermo Q-Exactive mass spectrometer. The chromatography is achieved on a Waters Acquity C18 BEH (50×2.1 mm) 1.7 μm particle size column, using a 6 minute gradient run of Water (0.2% formic acid) and Acetonitrile. The Q-Exactive is operated in positive ionisation electrospray mode, using Full scan-AIF mode, at 35,000 resolution, between 100-800 m/z. All analytes are identified from the full scan data to within at least 5 ppm accuracy of their predicted pseudo-molecular ion [M+H]^+ m/z value. In order to obtain quantitative data standard curves are run using herbicides and herbicide glucosides synthesized as standards. Where these synthetic glucosides were not available the LC/MS assay could only be used to provide relative data.
The glucosyl transferase activities of the mutant bx8-derived polypeptides expressed in these strains were initially assayed versus herbicide V as described in Example 1. The partly purified C-terminally his tagged w/t bx8 enzyme (SEQ ID No: 2) catalyzed glucosyl transfer to herbicide V at a low rate estimated to be less than about 0.002/s at 1 mM herbicide V which, because of a relatively high background of UDP formation in the DMSO (no substrate reagent control) was difficult to quantify using the luminescence assay. Thus further assays were run by LC/MS using which technique the formation of an O-beta glucosyl glucoside of herbicide V could more easily be confirmed but only quantified in a relative sense. Thus the various derivatives of C-terminally his tagged Zea mays bx8 SEQ ID No:2 were cloned and expressed in E. coli BL21 (DE3) as described in Example 1 and assayed in plates as crude extracts, as in Example 2, but monitored by LCMS rather than the luminescence assay.
The different stereoisomer standards chromatographed distinctly on LC (FIGS. 8A-8H). By comparing the LC elution profiles of the standards with the enzyme products at the correct mass it was possible to characterize which polypeptides catalyzed the formation of which O-glucosides. Assay samples and glucoside conjugate standards are run using the identical chromatographic conditions to allow us to identify the conjugate isomer formed in the assay. In short, as would be expected for inverting glucosyl transferases all of the bx enzymes tested produced beta glucoside products (from the alpha-UDP-glucose substrate) from all herbicides tested. But there can be subtle variations between enzymes in stereochemistry of the products made at other chiral centers.

B1: SEQ ID NO: 40: I374V, H376C double mutant of Zea mays bx8 (protein)
chain: MAASCGGRVVVFPFPFQGHFNPVMRLARALHARGVGITVFHTAGARAPDPADYPADYRFVPVPVEVAPELMASEDIAAIVTALNAACEAPFRDRLSALLSAADGEAGEAGGRVRCVLTDVSWDAVLSAARGLGVPALGVMTASAATFRVYMAYRTLVDKGYLPVREERKDDAVAELPPYRVKDLLRHETCDLEEFADLLGRVIAAARLSSGLIFHTFPFIEAGTLGEIRDDMSVPVYAVAPLNKLVPAATASLHGEVQADRGCLRWLDAQRARSVLYVSFGSMAAMDPHEFVELAWGLADAGRPFVWVVRPNLIRGFESGALPDGVEDRVRGRGVVVSWAPQEEVLAHPAVGGFFTHCGWNSTVEAVSEGVPMVCCPRHGDQYGNARYVCHVWKVGTEVAGDQLERGEIKAAIDRLMGGSEEGEGIRKRMNELKIAADKGIDESAGSDLTNLVHLINSY
modifications: Mutated Zea mays Bx8 protein sequence
- activity with herbicide V: detectable activity
- activity relative to like-expressed Zea mays bx9 w/t extract: about a third to a half
- activity relative to like-expressed Zea mays bx9 w/t extract (listed as SEQ ID No 40): up to about half

B2: A246T, E256V: double mutant of Zea mays bx8, printed A248T, E256V in b223 (protein)
chain: B1 chain with A248T, E256V, V374I, C376H
modifications: Mutated Zea mays Bx8 protein sequence
notes: double mutant of Zea mays bx8, printed A248T, E256V
- activity with herbicide V: detectable activity

B3: V367I, H376C: double mutant of Zea mays bx8 (protein)
chain: B1 chain with V367I, V374I
modifications: Mutated Zea mays Bx8 protein sequence
- activity with herbicide V: detectable activity

B4: V367I, I374V: double mutant of Zea mays bx8 (protein)
chain: B1 chain with V367I, C376H
modifications: Mutated Zea mays Bx8 protein sequence
- activity with herbicide V: detectable activity

B5: D170E, A72P, A174P: triple mutant of Zea mays bx8 (protein)
chain: B1 chain with A72P, D170E, A174P, V374I, C376H
modifications: Mutated Zea mays Bx8 protein sequence
- activity with herbicide V: detectable activity

B6: E256V, R265Q: double mutant of Zea mays bx8 (protein)
chain: B1 chain with E256V, R265Q, V374I, C376H
modifications: Mutated Zea mays Bx8 protein sequence
- activity with herbicide V: detectable activity

B7: SEQ ID NO: 50: zmBX8/zmBX9 hybrid polypeptide (protein)
chain: MAASCGGRVVVFPFPFQGHFNPVMRLARALHARGVGITVFHTAGARAPDPADYPADYRFVPVPVEVAPELMASEDIAAIVTALNAACEAPFRDRLSALLSAADGEAGEAGGRVRCVLTDVSWDAVLSAARGLGVPALGVMTASAATFRVYMAYRTLVDKGYLPVREERKDDAVAELPPYRVKDLLRHETCDLEEFADLLGRVIAAARLSSGLIFHTFPFIEAGTLGEIRDDMSVPVYAVAPLNKLVPAATASLHGEVQADRGCLRWLDAQRARSVLYVSFGSMAAMDPHEFVELAWGLADAGRPFVWVVRPNLIRGFESGALPDGVEDRVRGRGVVVSWAPQEEVLAHPAVGGFFTHCGWNSTVEAISEGVPMVCCPRHGDQFGNMRYVCDVWKVGTELVGEQLERGQVKAAIDRLFGTKEGEEIKERMKEFKIAAAKGIGIGVDVDETASPRTDLTDLVDLIKSF
modifications: Hybrid sequence between Zea mays Bx8 and Bx9 sequences
notes: zmBX8/zmBX9 hybrid polypeptide
- activity with herbicide V: active
- activity relative to like-expressed Zea mays bx9 w/t extract: about a third to a half
- activity relative to like-expressed Zea mays bx9 w/t extract (listed as 50): up to about half
